The nature of data set [1]: 14C assay with purified protein (14CO2 captured on Ca(OH)2 filter paper). Format: biochemical. The settings on record: [14C]-carboxyl-labeled dicamba.
The nature of data set [2]: Detection of 4-chloro-3-methoxy phenol product by LC-MS/MS. In kind it is biochemical. Conditions: purified protein. On the procedure: The decarboxylated and chloro hydrolyzed product, 4-chloro-3-methoxy phenol (FIG. 1D), is measured using a LC-MS/MS analytical procedure. […] 10 ul is removed from the reaction mixture and mixed with 90 ul pre-chilled methanol followed by centrifugation at 14,000 rpm for 15 min at 4° C. 10 ul of the supernatant is then transferred into 170 ul ddH2O to achieve 5% methanol solution for injection. 50 ul of the prepared sample is injected into a 4000 Q Trap LC-MS/MS system for sample analysis. LC-MS/MS parameters are: Mobile Phase A, 2 mM ammonium acetate in water; Mobile Phase B, 2 mM ammonium acetate in methanol; Column, Aquasil, 100×2.1 mm, 3 μm, C18 column; Flow Rate, 0.6 ml/min. The MS/MS fragment 157/142 which is common to 4-chloro-3-methoxy phenol, 2-chloro-5-methoxy phenol, and 3-chloro-5-methoxy phenol is monitored at a retention time of 2.88 min.

A short description of data set [3]: Detection of 2,5-DCP product by GC/MS. In kind it is biochemical. The settings on record: purified protein. On the procedure: The decarboxylated and demethylated product of dicamba, 2,5-dichloro phenol or 2,5-DCP (FIG. 1E) is measured using a GC/MS analytical procedure with either liquid injection after liquid/liquid extraction using toluene as the extraction solvent or gas injection using head space method. The head space sample analysis is carried out on an Agilent GC/MS system with a 6890A GC, a 5973N MSD and a CTC CombiPAL auto-sampler or with a 7890A GC, a 5975C MSD and an Agilent GC Sampler 80 auto-sampler with Phenomenex ZB-MultiResidue-1 column (30 m length, 0.25 mm diameter, 0.25 um film) or equivalent. GC/MS parameters are: GC inlet temperature, 200° C.; Carry gas, helium in constant flow mode (1.2 mL/min); Oven temperature program, 70° C. for 1 min and then ramp to 275° C. at 40° C./min. […] The reaction vial is transferred to a agitator for incubation at 90° C. for 4 min at 500 rpm. With a syringe preheated at 110° C., 1000 uL of head space is injected with sample fill speed at 100 uL/sec. A 2-mm diameter liner is used in sample inlet. The MS data acquisition is done in SIM (selected ion monitoring) mode. The positive ion at M/Z 162 for the molecular ion of 2,-5-DCP is monitored at retention time of 4.06 min. Solvent delay for MS acquisition is set at 3 min. GC/MS parameters for liquid sample analysis are the same as those for head space analysis, except that the volume of liquid injection is 1 uL.

Data set [4] is described as follows: Dicamba decarboxylation activity of computationally designed protein variants. Conditions: for Dicamba Decarboxylase Activity: native protein or designed variant versus parent; for Dicamba Decarboxylation activity: Table 5, designed variants with improved activity; for Percent Activity Improvement Over Parent (%): parent SEQ ID NO:1 or SEQ ID NO:41 listed as 100.

Data set [5] is described as follows: 14C assay with IPTG-induced recombinant E. coli cells (14CO2 capture from [14C]-carboxyl-labeled dicamba). Conditions: for Enzymatic Detection level: dicamba decarboxylation activity of the protein of the given SEQ ID NO; for decarboxylation activity of dicamba: E. coli cell assay, 108 sequences tested.

B1: SEQ ID NO:115: Design variant of SEQ ID NO: 1 (protein)
chain: MAQGKVALEEHFAIPDTLTTYTTSGDYEKELKHRLLDIQDTRLKLMDAHGIETMILSLNAPGVQAIPDRRKAIEIARRANDVLAEECAKRPDRFLAFAALPLQDPDAATEELQRCVNDLGFVGALVNGFSQEGDGQTPLYYDLPQYRPFWGEVEKLDVPFYLHPRNPLPQDSRIYDGHPWLLGPTWAFAQETAVHALRLMASGLFDEHPRLNIILGHMGEGLPYMMWRIDHRNAWVKTPPRYPAKRRFMDYFNENFHITTSGNFRTQTLIDAILEIGADRILFSTDWPFENIDHASDWFNATSIAEADRVKIGRTNARRLFKLDGA
modifications: Dicamba decarboxylase variant clone DC.4.161
As to B1, in data set [1], the CO2 product result is recorded as “detected”. In data set [2], the 4-chloro-3-methoxy phenol product result is listed as “detected”. Also, the “2,5-DCP product” value in data set [3] was “detected”. Moreover, the “Dicamba Decarboxylase Activity” value in data set [4] is “displays an increase in dicamba decarboxylase activity”.

B2: 115 (protein)
chain: MAQGKVALEEHFAIPDTLTTYTTSGDYEKELKHRLLDIQDTRLKLMDAHGIETMILSLNAPGVQAIPDRRKAIEIARRANDVLAEECAKRPDRFLAFAALPLQDPDAATEELQRCVNDLGFVGALVNGFSQEGDGQTPLYYDLPQYRPFWGEVEKLDVPFYLHPRNPLPQDSRIYDGHPWLLGPTWAFAQETAVHALRLMASGLFDEHPRLNIILGHMGEGLPYMMWRIDHRNAWVKTPPRYPAKRRFMDYFNENFHITTSGNFRTQTLIDAILEIGADRILFSTDWPFENIDHASDWFNATSIAEADRVKIGRTNARRLFKLDGA
modifications: Dicamba decarboxylase variant clone DC.4.161
Take B2: in data set [4], the “Dicamba Decarboxylation activity” value is “Yes” and the “Percent Activity Improvement Over Parent (%)” value is 202%. For the same molecule, the “Enzymatic Detection level” value in data set [5] was “High”.

B3: SEQ ID NO:108: hypothetical protein SAV2580, Staphylococcus aureus subsp. aureus Mu50 (protein, listed as Staphylococcus aureus)
chain: MAKSITFEEHYVIEDIQKETMNAISADPKGVPMKVMLEGLEKKTGFTNADELSHHDERIQFMNNQDVQIQVLSYGNGSPSNLVGQKAIELCQKANDQLANYIAQYPNRFVGFATLPINEPEAAAREFERCINDLGFKGALIMGRAQDGFLDQDKYDIIFKTAENLDVPIYLHPAPVNSDIYQSYYKGNYPEVTAATFACFGYGWHIDVGIHAIHLVLSGIFDRYPKLNMIIGHWGEFIPFFLERMDEALFAEHLNHSVSYYFKNSFYITPSGMLTKPQFDLVKKEVGIDRILYAADYPYIEPEKLGVFLDELGLTDEEKEKISYTNGAKLLGLSSNN
B3: in data set [1], the CO2 product result is given as “detected”. In addition, the 4-chloro-3-methoxy phenol product entry in data set [2] was “detected”. Further, in data set [3], the “2,5-DCP product” value is “detected”. Also, in data set [5], the “decarboxylation activity of dicamba” value was “showed decarboxylation activity of dicamba”.

B4: SEQ ID NO:32: o-pyrocatechuate decarboxylase, Streptomyces violaceusniger Tu 4113 (protein)
chain: MARIIAIEEHFLDLDIARASRPEAERLSPAFAAAYGAGQGYNYSPAPEVLLDLEEGRVADMDAHGISMQVLSSLSTQQLPADVAVELVRKVNDRAAAAVAARPDRFAAFAALPTTVPEAAADELDRAVGELGFVGSMINGRTGDAFLDAPRFDAVLRRSAELRVPVYLHPGVPPVETSRSNYEGGLDPIVTARLQTSAWGWHVETGIHFLHLVLAGVFDRYPDLQVILGHWGEMVPFFLERIEEALPQQITHLDRPVGAYFRENAHITPSGMFSQAQLQFCVETVGIERIMFSVDYPFLGNDGAEAFLRQANLPPLATEKIAHLNAERLLALPS
modifications: Streptomyces violaceusniger
As for B4, in data set [1], the CO2 product result was “detected”. Moreover, the 4-chloro-3-methoxy phenol product entry in data set [2] is listed as “detected”. Besides, the “2,5-DCP product” value in data set [3] is reported as “detected”. Moreover, in data set [5], the “decarboxylation activity of dicamba” value was “showed decarboxylation activity of dicamba”.

B5: SEQ ID NO:114: Design variant of SEQ ID NO: 1 (protein)
chain: MAQGKVALEEHFAIPETLQDSAGAVPGDYWKELQHRLLDIQDTRLKLMDAHGIETMILSLNAPAVQAIPDRRKAIEIARRANDVLAEECAKRPDRFLAFAALPLQDPDAATEELQRCVNDLGFVGALVNGFSQEGDGQTPLYYDLPQYRPFWGEVEKLDVPFYLHPRNPLPQDSRIYDGHPWLLGPTWAFAQETAVHALRLMASGLFDEHPRLNIILGHMGEGLPYMMWRIDHRVAWVKLPPRYPAKRRFMDYFNENFHITTSGNFRTQTLIDAILEIGADRILFSTDWPFENIDHASDWFNATSIAEADRVKIGRTNARRLFKLDGA
modifications: Dicamba decarboxylase variant clone DC.4.116
With B5, the CO2 product result in data set [1] was “detected”. Further, the 4-chloro-3-methoxy phenol product entry in data set [2] is on record as “detected”. For the same molecule, in data set [3], the “2,5-DCP product” value is “detected”. Moreover, the “Dicamba Decarboxylase Activity” value in data set [4] was “displays an increase in dicamba decarboxylase activity”.

B6: 110 (protein)
chain: MAQGKVALEEHFAIPETLQDSMGFVPGDYWKELMHRLLDIQDTRLKLMDAHGIETMILSLNAPAVQAIPDRRKAIEIARRANDVLAEECAKRPDRFLAFAALPLQDPDAATEELQRCVNDLGFVGALVNGFSQEGDGQTPLYYDLPQYRPFWGEVEKLDVPFYLHPRNPLPQDSRIYDGHPWLLGPTWAFAQETAVHALRLMASGLFDEHPRLNIILGHMGEGLPYMMWRIDHRMAWVKLPPRYPAKRRFMDYFNENFHITTSGNFRTQTLIDAILEIGADRILFSTDWPFENIDHASDWFNATSIAEADRVKIGRTNARRLFKLDGA
modifications: Dicamba decarboxylase variant clone DC.4.111
Take B6: in data set [4], the “Dicamba Decarboxylation activity” value is reported as “Yes” and the “Percent Activity Improvement Over Parent (%)” value stood at 277%. In addition, the “Enzymatic Detection level” value in data set [5] was “High”.

B7: 114 (protein)
chain: MAQGKVALEEHFAIPETLQDSAGAVPGDYWKELQHRLLDIQDTRLKLMDAHGIETMILSLNAPAVQAIPDRRKAIEIARRANDVLAEECAKRPDRFLAFAALPLQDPDAATEELQRCVNDLGFVGALVNGFSQEGDGQTPLYYDLPQYRPFWGEVEKLDVPFYLHPRNPLPQDSRIYDGHPWLLGPTWAFAQETAVHALRLMASGLFDEHPRLNIILGHMGEGLPYMMWRIDHRVAWVKLPPRYPAKRRFMDYFNENFHITTSGNFRTQTLIDAILEIGADRILFSTDWPFENIDHASDWFNATSIAEADRVKIGRTNARRLFKLDGA
modifications: Dicamba decarboxylase variant clone DC.4.116
B7: in data set [4], the “Dicamba Decarboxylation activity” value was “Yes” and the “Percent Activity Improvement Over Parent (%)” value is given as 221%. Besides, in data set [5], the “Enzymatic Detection level” value is recorded as “High”.

B8: 113 (protein)
chain: MAQGKVALEEHFAIPETLQDSAGFVPGDYLKELFHRLLDIQDTRLKLMDAHGIETMILSLNAPAVQAIPDRRKAIEIARRANDVLAEECAKRPDRFLAFAALPLQDPDAATEELQRCVNDLGFVGALVNGFSQEGDGQTPLYYDLPQYRPFWGEVEKLDVPFYLHPRNPLPQDSRIYDGHPWLLGPTWAFAQETAVHALRLMASGLFDEHPRLNIILGHMGEGLPYMMWRIDHRVAWVKLPPRYPAKRRFMDYFNENFHITTSGNFRTQTLIDAILEIGADRILFSTDWPFENIDHASDWFNATSIAEADRVKIGRTNARRLFKLDGA
modifications: Dicamba decarboxylase variant clone DC.4.114
B8: in data set [4], the “Dicamba Decarboxylation activity” value is on record as “Yes” and the “Percent Activity Improvement Over Parent (%)” value worked out at 224%. The “Enzymatic Detection level” value in data set [5] is “High”.

B9: 116 (protein)
chain: MAQGKVALEEHFAIPETLQDAAGFVPGDYWKELQHRLLDIQDRRVRLMDEHGIETMILSLNAPAVQAIADSTRANETARRANDFLAEQVAKQPTRFRGFAALPMQDPELAARELERCVKELGFVGALVNGFSQDNRSAVPLYYDMAQYWPFWETVQALDVPFYLHPRNPLPSDARIYDGHAWLLGPTWAFGQETAVHALRLMGSGLFDKYPALKIILGHMGEGLPYSMWRIDHRNAWIKTTPKYPAKRKIVDYFNENFYLTTSGNFRTQTLIDAILEIGADRILFSTDWPFENIDHAADWFENTSISEADRKKIGWGNAQNLFKLNR
modifications: Dicamba decarboxylase variant clone DC.30.007
Regarding B9, in data set [4], the “Dicamba Decarboxylation activity” value was “Yes” and the “Percent Activity Improvement Over Parent (%)” value came to 220%. Moreover, the “Enzymatic Detection level” value in data set [5] is recorded as “High”.

The values above are taken from patent US20140287419A1, “Compositions Having Dicamba Decarboxylase Activity and Methods of Use” (priority 2013, published 2014).
